Data reported in patent US20250136677A1 (ZOETIS SERVICES, published 2025).

How the values were obtained:
[1] = biological target: T1, canine IL-31 protein (Canine_IL31) (canine); assay: cell-based or functional assay
T1 chain: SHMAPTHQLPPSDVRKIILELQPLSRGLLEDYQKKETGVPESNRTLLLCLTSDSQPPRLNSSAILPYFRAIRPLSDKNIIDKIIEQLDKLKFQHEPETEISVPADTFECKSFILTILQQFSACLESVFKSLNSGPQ

[2] = biological target: T2, wildtype feline IL-31 protein (Feline_IL31_wildtype) (feline); assay: cell-based or functional assay
T2 chain: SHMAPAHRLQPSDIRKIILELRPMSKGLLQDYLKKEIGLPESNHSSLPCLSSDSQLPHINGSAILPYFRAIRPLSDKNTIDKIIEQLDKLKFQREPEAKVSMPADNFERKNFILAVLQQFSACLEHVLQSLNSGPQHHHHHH

[3] = biological target: T2, wildtype feline IL-31 protein …; assay: cell-based or functional assay
[4] = biological target: T3, mutant feline IL-31 15H05 protein (Feline_IL31_15H05_mutant) (feline); assay: indirect ELISA, IL-31 protein coated
T3 construct: also called feline 15H05 mutant; 15H05 IL-31 mutant
T3 chain: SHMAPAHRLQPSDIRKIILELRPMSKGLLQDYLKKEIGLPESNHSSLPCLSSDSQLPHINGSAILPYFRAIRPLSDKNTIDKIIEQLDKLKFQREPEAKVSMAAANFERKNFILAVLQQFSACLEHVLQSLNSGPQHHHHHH
Experimental: (§1) For the indirect ELISA method, antibody binding to wildtype and feline IL-31 15H05 mutant proteins was assessed. All nine canine monoclonal antibodies (ZIL1, ZIL8, ZIL8, ZIL11, ZIL69, ZIL94, ZIL154, ZIL159, and ZIL171) were capable of binding to wildtype feline IL-31 and binding was impacted by mutations in the mAb 15H05 epitope region confirming the correct binding phenotype determined during the initial screening used to identify them. In comparison, the 11E12 antibody bound to the wild-type feline IL-31 and its binding was not impacted by the mutations in the 15H05 epitope region as evidenced by the data in FIG. 4. To confirm binding, biacore analysis was performed using canine, feline, equine, human, feline 15H05 mutant, and feline 11E12 mutant IL-31 proteins as surfaces and a single test concentration of antibody. Similar to ELISA observations, all antibodies tested bound to wildtype feline IL-31. In agreement with the data described above in this section, mouse antibodies 11E12 and 15H05 both bound to canine and feline IL-31 surfaces. Three additional antibodies where shown to have this dual binding property, ZIL69 (partial canine binding), ZIL94, and ZIL159. From this group of nine fully canine antibodies, only ZIL1 and ZIL9 cross-reacted with equine IL-31. Of note, antibody 15H05 was the only one of all assayed herein that bound to canine, feline, and equine IL-31 indicating some level of epitope conservation across the three species. In contrast, none of the antibodies described herein bound to human IL-31. Additional biacore surfaces were used to verify ELISA observations showing differential binding of antibodies to wildtype feline IL-31 and two proteins with mutations in the 15H05 (15H05 mutant) or 11E12 (11E12 mutant) epitopes. […] In agreement with the ELISA results, all fully canine antibodies were impacted by the 15H05 mutation with the exception of ZIL94, ZIL154, and ZIL171 (partially affected). Differing results can be attributed to differences in the two assay methodologies.

[5] = biological target: T2, wildtype feline IL-31 protein …; assay: indirect ELISA, IL-31 protein coated
Experimental: as §1

[6] = biological target: T2, wildtype feline IL-31 protein …; assay: SPR (Biacore), IL-31 on chip, 1:1 fit
Method in brief: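 IL-31 was amine-coupled (NHS/EDC) to the chip at 5 μg/mL and quenched with ethanolamine, and candidate mAbs were flowed over it as analytes. Binding curves were fitted to a 1:1 model.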

[7] = biological target: T3, mutant feline IL-31 15H05 protein …; assay: SPR (Biacore), IL-31 protein as surface capture; Biacore KD of Table 1, mutant IL-31 as surface capture; weak binding, about 78 times weaker than on wildtype feline
Experimental: The affinity with which candidate mAbs bind canine and feline IL-31 was determined using surface plasmon resonance (SPR) on a Biacore system (Biocore Life Sciences (GE Healthcare), Uppsala, Sweden). To avoid affinity differences associated with differential surface preparation that can occur when immobilizing antibodies to surfaces; a strategy was employed where IL-31 was directly conjugated to the surface. Immobilization was obtained by amine coupling 5 μg/mL IL-31 using N-hydroxysuccinimide (NHS)/1-Ethyl-3-(3-dimethylaminopropyl) carbodiimide (EDC) chemistry. Chips were quenched with ethanolamine and the affinity with which all candidate mAbs bound to the immobilized IL-31 was evaluated. All curves were fit to a 1:1 model. […] Results for affinity measurements are described herein.
Table 1 below describes the results for biacore analysis using multiple species of IL-31 protein as a surface capture.

B1: mouse anti IL-31 antibody 15H05 (antibody, mouse IgG1, kappa)
heavy: QVQLQQSAAELARPGASVKMSCKTSGYTFTSYTIHWIKQRPGQGLEWIGNINPTSGYTENNQRFKDKTTLTVDRSSNTAYLQLHSLTSEDSAVYFCARWGFKYDGEWSFDVWGAGTTVTVSSKTTPPSVYPLAPGSAAQTNSMVTLGCLVKGYFPEPVTVTWNSGSLSSGVHTFPAVLESDLYTLSSSVTVPSSPRPSETVTCNVAHPASSTKVDKKIVPRDCGCKPCICTVPEVSSVFIFPPKPKDVLTITLTPKVTCVVVDISKDDPEVQFSWFVDDVEVHTAQTQPREEQFNSTFRSVSELPIMHQDWLNGKEFKCRVNSAAFPAPIEKTISKTKGRPKAPQVYTIPPPKEQMAKDKVSLTCMITDFFPEDITVEWQWNGQPAENYKNTQPIMNTNGSYFVYSKLNVQKSNWEAGNTFTCSVLHEGLHNHHTEKSLSHSPGK
light: DIQMNQSPSSLSASLGDTITVTCRASQGISIWLSWYQQKPGNIPKVLINKASNLHIGVPPRFSGSGSGTHFTLTITSLQPEDIATYYCLQSQTYPLTFGGGTKLEINADAAPTVSIFPPSSEQLTSGGASVVCFLNNFYPKDINVKWKIDGSERQNGVLNSWTDQDSKDSTYSMSSTLTLTKDEYERHNSYTCEATHKTSTSPIVKSFNRNEC
notes: Mouse hybridoma antibody, IgG1 kappa; also called Mu-15H05; MU-15H05
With B1 the Inhibition of IL-31 induced pSTAT3 IC50 (µg/ml), Canine IL-31 on Canine DH82 cells [1] was 11.2 µg/ml, the “IC50, inhibition of feline IL-31-induced STAT3 phosphorylation, canine DH82 cells” value [2] was 2.7 µg/mL and the “IC50, inhibition of feline IL-31-induced STAT3 phosphorylation, feline FCWF4 cells” value [2] was 4.26 µg/mL. For the same binder, the “Inhibition of IL-31 induced pSTAT3 IC50 (µg/ml), Feline IL-31 on Feline FCWF-4 cells” value [3] was 6 µg/ml, the “ELISA OD” value [4] was 0.05 OD and the “ELISA OD” value [5] was 1.94 OD. For the same binder, the Kd [6] was 0.348 nM, the koff [6] was 1.69e-05 s⁻¹ and the kon [6] was 48400 M⁻¹ s⁻¹. For the same binder, the Kd [7] was 23.9 nM.
